From US20140357845A1

Columns and labels:
Details in all cases: remark: other sources report otherwise
[1] = molecular target: T1, s-H1-mini2-cluster1 + 5 + 6-GCN4 (A/Brisbane/59/2007) (influenza A virus H1N1)
[2] = molecular target: mini2-cluster11 + 5 + 6 (A/Brisbane/59/2007) (influenza A virus H1N1), A8C8J4; experiment: FACS
[3] = molecular target: mini2 cluster11 + 5 (A/Brisbane/59/2007) (influenza A virus H1N1), A8C8J4; experiment: FACS
[4] = molecular target: miniHA cluster1 (A/Brisbane/59/2007) (influenza A virus H1N1), A8C8J4; experiment: FACS
[5] = molecular target: mini2-cluster1 + 5 (A/Brisbane/59/2007) (influenza A virus H1N1), A8C8J4; experiment: FACS
[6] = molecular target: H1-mini2-cluster1 + 5 + 6-trim (influenza A virus H1N1), A8C8J4; experiment: FACS
[7] = molecular target: T1, s-H1-mini2-cluster1 + 5 + 6-GCN4 …; experiment: BLI steady state titration, 1:1 model

B1: CR6261 (antibody, V domains shown)
VH: EVQLVESGAEVKKPGSSVKVSCKASGGPFRSYAISWVRQAPGQGPEWMGGIIPIFGTTKYAPKFQGRVTITADDFAGTVYMELSSLRSEDTAMYYCAKHMGYQVRETMDVWGKGTTVTVSS
VL: QSVLTQPPSVSAAPGQKVTISCSGSSSNIGNDYVSWYQQLPGTAPKLLIYDNNKRPSGIPDRFSGSKSGTSATLGITGLQTGDEANYYCATWDRRPTAYVVFGGGTKLTVLG
Q: For B1, which BLI maximum response [1] is on record?
A: The BLI maximum response was 0.25 nm.

Q: What about the % positive cells [2] of the same binder?
A: The % positive cells was 80%.

Q: What about the % positive cells [3] of the same binder?
A: The % positive cells was 80%.

Q: And the MFI relative to full-length HA [3]?
A: The MFI relative to full-length HA was 50%.

Q: What about the % positive cells [4] of the same binder?
A: The % positive cells was 60%.

Q: And the MFI relative to full-length HA [4]?
A: The MFI relative to full-length HA was 10%.

Q: And the % positive cells [5]?
A: Its % positive cells is 80%.

Q: And the % positive cells [6]?
A: The % positive cells was 80%.

Q: And the fold reduction of MFI against SEQ ID NO: 46 [6]?
A: Its fold reduction of MFI against SEQ ID NO: 46 is 3 to 4 fold.

Q: What about the Kd [7] of the same binder?
A: Its Kd is 190 nM.
